Results as given in the PETadex activity labels (doi:10.1002/cssc.202101062).

B1: unnamed (protein)
chain: MDNPYERGPDPTTQSVEAARGPYAVSQITVGGQFGSYSGGTIYYPTSTADGKFGAVAIAPGFLSFQSSVAWLGPRLASQGFVVMTIDTGTIFDQPAQRGDQLLDALDFLTQRSSVKDRIDPNRLAVAGWSMGGGGSLEAAADRPSLKAAIPMAGWNLNTNWSRLTTPVLVVGVQNDLIAPVGSHSEPFYNSIRSEKAYLELAGGSHFTVTSANTPQAKLMISWLKRFVDNDTRYEQFICPGPSRGFSVSEYRSTCPF
B2: unnamed (protein)
chain: MDNPYERGPDPTTQSVEAARGPYAVSQITVGGQFGSYSGGTIYYPTSTTDGKFGAVAIAPGFLSFQSSVAWLGPRIASQGFVVMTIDTGTIFDQPAQRGDQLLDALDFLTQRSSVKDRIDPNRLAVAGWSMGGGGSLEAAADRPSLKAAIPMAGWNLNTNWSRLTTPVLVVGVQNDLIAPVAMHSEPFYNSIRSEKAYLELAGGSHFTVTSANTPQAKLMISWLKRFVDNDTRYEQFICPGPSRGFSVSEYRSTCPF
B3: unnamed (protein)
chain: MENPYERGPDPTTQSVEAARGPYAVSQITVGGQFGSYSGGTIYYPTSTADGKFGAVAIAPGFLSFQSSVAWLGPRIASQGFVVMTIDTGTIFDQPAQRGDQLLDALDFLTQRSSVKDRIDPNRLAVAGWSWGGGGSLEAAADRPSLKAAIPMAGWNLNTNWSRLTTPVLVVGVQNDLIAPVAMHSEPFYNSIRSEKAYLELAGGSHFTVTSANTPQAKLMISWLKRFVDNDTRYEQFICPGPSRGFSVSEYRSTCPY
B4: unnamed (protein)
chain: MANPYERGPAPTTSSIEASRGPFAIASVTVSRSSVSGFGGGTIYYPRDTSEGTFGAVAIAPGFTADEGSMAWYGPRIASQGFVVFTIDTITRLDQPDSRGRQLLAALDYLTQRSSVRSRIDSSRLAVMGHSMGGGGSLEASVSRPSLKAAIPLTPWNLKKNWRDVRVPTLIVGAESDSIASVRTHAEPFYESIPSTTNKAYLELNNATHFAPNISNTTIAKYSISWLKRFVDNDTRYEQFLCPPPRPDRDIEEYRSTCPH
B5: unnamed (protein)
chain: MANPYERGPDPTVQSIEAVRGPFSVSETNVSRLVVTGFGGGTIYYPRDTSQGTFGAVAIAPGFTASEGSMAWYGPRIASQGFVVFTIDTLTRLDQPDSRGRQLLAALDYLTQRSSVRSRIDSSRLAVMGHSMGGGGSLEASESRPSLKASIPLTPWNLKKNWRNNRVPTLIVGAENDSIASVRTHAEPFYESIPSTTNKAYLELNNATHFAPNISNTTIAKYSISWLKRFVDNDTRYEQFLCPPPRPDRDIEEYRCTCPY

Substrate: PET
Assay: Proxy for plastic degradation [Weight/mass loss]
Details: pH 8; 45 °C

| Protein | Proxy for plastic degradation [%] |
| --- | --- |
| B1 | 1 |
| B2 | 2 |
| B3 | 0.5 |
| B4 | 1 |
| B5 | 2 |

Same assay, conditions: pH 8; 50 °C

| Protein | Proxy for plastic degradation [%] |
| --- | --- |
| B1 | 1.5 |
| B2 | 3 |
| B3 | 1 |
| B4 | 2.5 |
| B5 | 2.5 |

Same assay, conditions: pH 8; 55 °C

| Protein | Proxy for plastic degradation [%] |
| --- | --- |
| B1 | 1 |
| B2 | 5 |
| B3 | 0.5 |
| B4 | 1 |
| B5 | 1 |

Same assay, conditions: pH 8; 60 °C

| Protein | Proxy for plastic degradation [%] |
| --- | --- |
| B1 | 1 |
| B2 | 8 |
| B3 | 0.5 |
| B4 | 0.5 |
| B5 | 0.5 |

Substrate: gfPET
Assay: Proxy for plastic degradation [Released monomer concentration (HPLC/LC-MS) (TPA+MHET+BHET)]
Details: 40 °C

| Protein | Proxy for plastic degradation [mmol/h] |
| --- | --- |
| B1 | 0 |
| B2 | 0 |
| B3 | 0 |
| B4 | 0 |
| B5 | 0 |

Same assay, conditions: 50 °C

| Protein | Proxy for plastic degradation [mmol/h] |
| --- | --- |
| B1 | 0.2 |
| B2 | 0.1 |
| B3 | 0.1 |
| B4 | 0.38 |
| B5 | 0.2 |

Same assay, conditions: 55 °C

| Protein | Proxy for plastic degradation [mmol/h] |
| --- | --- |
| B1 | 0.21 |
| B2 | 0.18 |
| B3 | 0.13 |
| B4 | 0.2 |
| B5 | 0.22 |

Same assay, conditions: 60 °C

| Protein | Proxy for plastic degradation [mmol/h] |
| --- | --- |
| B1 | 0.1 |
| B2 | 0.1 |
| B3 | 0.05 |
| B4 | 0.1 |
| B5 | 0.19 |

Same assay, conditions: 65 °C

| Protein | Proxy for plastic degradation [mmol/h] |
| --- | --- |
| B1 | 0 |
| B2 | 0 |
| B3 | 0 |
| B4 | 0.05 |
| B5 | 0.1 |

Same assay, conditions: 70 °C

| Protein | Proxy for plastic degradation [mmol/h] |
| --- | --- |
| B1 | 0 |
| B2 | 0 |
| B3 | 0 |
| B4 | 0.05 |
| B5 | 0.08 |

Same assay, conditions: 75 °C

| Protein | Proxy for plastic degradation [mmol/h] |
| --- | --- |
| B1 | 0 |
| B2 | 0 |
| B3 | 0 |
| B4 | 0.05 |
| B5 | 0.06 |

Same assay, conditions: 80 °C

| Protein | Proxy for plastic degradation [mmol/h] |
| --- | --- |
| B1 | 0 |
| B2 | 0 |
| B3 | 0 |
| B4 | 0.05 |
| B5 | 0.05 |

Same assay, conditions: 85 °C

| Protein | Proxy for plastic degradation [mmol/h] |
| --- | --- |
| B1 | 0 |
| B2 | 0 |
| B3 | 0 |
| B4 | 0.05 |
| B5 | 0.05 |
